This is an account of results in the supplement of paper PMC9170038.

The series deals with MS2 coat protein. The series can be described thus: apparent KD of MS2 coat protein; designed switch direction (-1 OFF switch, 1 ON switch): -1; higher = weaker reporter binding. The essentials:
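Designed RNA switches with common flanks were made on Illumina chips by stalled E. coli RNA polymerase. Titration with SNAP-549-labelled MS2 coat protein doubled from 0.7 or 1.5 nM up to 3 µM. Apparent KD is each design's median over clusters after curve-fitting normalised fluorescence.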

Setting [1] is: Eterna round: R95, input ligand: microRNA oligo, concentration not stated.
The mark [2] stands for this setting: Eterna round: R95, input ligand: FMN 200 uM.
Setting [3] is: Eterna round: R95, input ligand: none.
Where [4] appears, read: input ligand: microRNA oligo, concentration not stated.

“GAUCGACAUGAGGAUCACCCAUGUCAGGAUAUGCAACGGACAAAACGAUACGUCAUAGGUAGAAGGGACUGUCU [Eternabot (Original) Solution 2] (Eterna round: R97, puzzle: Exclusion 1)”: the “apparent KD of MS2 coat protein” value reads like this: (input ligand: FMN 200 uM) 18.4 nM; (input ligand: none) 17.7 nM.

For “GAUGAGAGAGGAUAUACAUGAGGAUCACCCAUGUAAUUUUCGGACAUGGAAGCCUGAUGUAGAAGGCUCGCAUG [Usmaercele] (puzzle: Exclusion 3)”, the “apparent KD of MS2 coat protein” value under setting [1] amounted to 76.3 nM.

Regarding “GAUGAGGUAGGAUAUACGAGAAGAUAGGGUAGAUAUAUAACACAUGAGGAUCACCCAUGUAGAAGGACCAGUAG [Mat - Exclusion 2 - Mod of my Tesla design - D71] (puzzle: Exclusion 2)”, the “apparent KD of MS2 coat protein” value by setting is: under setting [2], 65.1 nM; under setting [1], 36.4 nM; under setting [3], 31.7 nM.

As to “GAUGGCUUAGGAUAUACAUAGAAGAAUUGAACUUGGAUUAUACAUGAGGAUCACCCAUGUAGAAGGAGGUCAUC [ExGluten 4 - Jieux - Exclusion 2] (Eterna round: R97, puzzle: Exclusion 2)”, the “apparent KD of MS2 coat protein” value reads like this: (input ligand: FMN 200 uM) 53 nM; (input ligand: none) 29.1 nM.

Regarding “GAUGGUCGAGGAUAUGCACCAGGGUCGACCUACUAGCGAAGACAUGAGGAUCACCCAUGUAGAAGGUGGCGGUU [Eternabot (L2) Solution 75] (Eterna round: R97, puzzle: Exclusion 2)”, the “apparent KD of MS2 coat protein” value is 73.9 nM (input ligand: FMN 200 uM) and 82.4 nM (input ligand: none).

On to “GAUUAUGCGAGCUUUAGGGACAUGAGGAUCACCCAUGUUCGUCUUAUUAGUCUGAGUACACUGACAUACCUAAAUCU [JMF 62] (puzzle: Sensor v3, turn-off variant 1)”, for which the “apparent KD of MS2 coat protein” value runs as follows: under setting [2], 14.2 nM; under setting [1], 14.8 nM; under setting [3], 13.3 nM.

On to “GAUUAUGCGAGCUUUAGGGACAUGAGGAUCACCCAUGUUCGUCUUAUUGAUCUGGAUGCGCUAACAUACCUAAAUCU [JMF 45] (puzzle: Sensor v3, turn-off variant 1)”, for which the “apparent KD of MS2 coat protein” value was found to be 65 nM under setting [2], 71.1 nM under setting [1] and 62.9 nM under setting [3].

Consider “GAUUAUGCGAGCUUUAGGGACAUGAGGAUCACCCAUGUUCGUCUUAUUGAUCUGGGUACGCUAACAUACCUAAAUCU [JMF 42] (puzzle: Sensor v3, turn-off variant 1)”, for which the “apparent KD of MS2 coat protein” value runs as follows: under setting [2], 82.2 nM; under setting [1], 89.2 nM; under setting [3], 96.7 nM.

“GAUUAUGCGAGCUUUAGGGACAUGAGGAUCACCCAUGUUCGUCUUAUUGGUCUAAAUGCACUGACAUACCUAAAUCU [JMF 74] (puzzle: Sensor v3, turn-off variant 1)”: the “apparent KD of MS2 coat protein” value under setting [2] was 14.9 nM, the “apparent KD of MS2 coat protein” value under setting [1] is 19.8 nM and the “apparent KD of MS2 coat protein” value under setting [3] is 16.7 nM.

Consider “GAUUAUGCGAGCUUUAGGGACAUGAGGAUCACCCAUGUUCGUCUUAUUGGUCUAGAUACACUAACAUACCUAAAUCU [JMF 12] (puzzle: Sensor v3, turn-off variant 1)”, for which the “apparent KD of MS2 coat protein” value came out at 15.2 nM under setting [2], 21.4 nM under setting [1] and 17.4 nM under setting [3].

Take “GAUUAUGCGAGCUUUAGGGACAUGAGGAUCACCCAUGUUCGUCUUAUUGGUCUGGGUACACUGACAUACCUAAAUCU [JMF 72] (puzzle: Sensor v3, turn-off variant 1)”: the “apparent KD of MS2 coat protein” value reads like this: under setting [2], 33.9 nM; under setting [1], 42.2 nM; under setting [3], 32.4 nM.

Regarding “GAUUCAUAUGACUUUCUAUACAUGAGGAUCACCCAUGUUUGUUUUUUUUGUUUUUCGCUUUUUAGUCGUCUUAUUAU [Gravy 3] (Eterna round: R97, puzzle: Sensor, turn-off variant 1)”, the “apparent KD of MS2 coat protein” value runs as follows: (input ligand: FMN 200 uM) 19.6 nM; (input ligand: none) 19 nM.

In the case of “GAUUGACAUGAGGAUCACCCAUGUGAGGAUAUCGGCCGGACCUUGUUAGCUUCCAGCGCGAGAAGGCGCAUAGG [Exclusion 1 V36] (puzzle: Exclusion 1)”, the “apparent KD of MS2 coat protein” value worked out at 58.9 nM under setting [2], 28.6 nM under setting [1] and 43.4 nM under setting [3].

For “GAUUGACAUGAGGAUCACCCAUGUGAGGAUAUCGGCUGGACCGUGUUGGCUUGGGUUUCGAGAAGGCGCAUAGG [Exclusion 1 V46] (puzzle: Exclusion 1)”, the “apparent KD of MS2 coat protein” value under setting [2] is 70.5 nM, the “apparent KD of MS2 coat protein” value under setting [1] was found to be 88.2 nM and the “apparent KD of MS2 coat protein” value under setting [3] came out at 74.6 nM.

For “GCAAGCUUAAUCACUAUGAACAUGAGGAUCACCCAUGUAUAAGGUAUUACUUUUGGGCCCUUUAUUACUCGUCUUAU [JR_STOV1_Sub031] (Eterna round: R97, puzzle: Sensor, turn-off variant 1)”, the “apparent KD of MS2 coat protein” value by setting is: (input ligand: FMN 200 uM) 51.9 nM; (input ligand: none) 54.4 nM.

For “GCACGAAGUGUAGGAUAUCUGUGCGAUUAGCUCAGAGAAGGACACAUGAGGAUCACCCAUGUGUUCCACGGAAACGAAACGUGC [Eli exng1 - 053] (Eterna round: R96, puzzle: Exclusion NG 1)”, the “apparent KD of MS2 coat protein” value (input ligand: FMN 200 uM) was 9.14 nM, the “apparent KD of MS2 coat protein” value under setting [4] stood at 8.47 nM and the “apparent KD of MS2 coat protein” value (input ligand: none) was determined as 11.9 nM.

For the sequence “GCACGGAGUGUAGGAUAUCUGUGCGAUUAGCUCAGAGAAGGACACAUGAGGAUCACCCAUGUGUACCUCAACAUUAAUCCGUGC [Eli exng1 - 075] (Eterna round: R96, puzzle: Exclusion NG 1)”, the “apparent KD of MS2 coat protein” value runs as follows: (input ligand: FMN 200 uM) 10.1 nM; under setting [4], 6.62 nM; (input ligand: none) 10.1 nM.

On to “GCACGGAGUGUAGGAUAUUAGUGCGAUUAGCACUGAGAAGGACAUGAGGAUCACCCAUGUUCCUCAAUAAUUAGCCUUCCGUGC [Eli exng1 - 038] (Eterna round: R96, puzzle: Exclusion NG 1)”, for which the “apparent KD of MS2 coat protein” value is, setting by setting: (input ligand: FMN 200 uM) 15.2 nM; under setting [4], 9.61 nM; (input ligand: none) 15.7 nM.

Take “GCACGGAUGGUAGGAUAUCAUUGCGAUUAGCUAUGAGAAGGGCCACAUGAGGAUCACCCAUGUCCUCUAAUUAGCCUUCCGUGC [Eli exng1 - 018] (Eterna round: R96, puzzle: Exclusion NG 1)”: the “apparent KD of MS2 coat protein” value under setting [4] turned out to be 82.3 nM.

Turning to “GCACUGCGAGGAUAUACAUGAGGAUCACCCAUGUGUCGGCAGCCAUGCCAGUACAAAUGUAGAAGGCGCGUAAA [EX3 #55] (Eterna round: R97, puzzle: Exclusion 3)”, the “apparent KD of MS2 coat protein” value is, setting by setting: (input ligand: FMN 200 uM) 88.1 nM; (input ligand: none) 27 nM.

With “GCACUGCGAGGAUAUACAUGAGGAUCACCCAUGUGUCGGCAGCCAUGUUAUUUCUAAUGUAGAAGGCGCGUAAA [JR_Ex3_Sub001] (Eterna round: R97, puzzle: Exclusion 3)”, the “apparent KD of MS2 coat protein” value was found to be 125 nM (input ligand: FMN 200 uM) and 33 nM (input ligand: none).

Regarding “GCACUUGAACAUGAGGAUCACCCAUGUGUUUUUCUUGUUCGGCAGGAUAUCGUCUAGCGCCAGGACGAGAAGGGCCAAUAAAAG [Ratiarveed] (Eterna round: R96, puzzle: Exclusion NG 3)”, the “apparent KD of MS2 coat protein” value is 77.8 nM (input ligand: FMN 200 uM), 61 nM under setting [4] and 141 nM (input ligand: none).

With “GCAGAAUGAGUUAGGAUAUGAUGAUUUUUCGGAUAUCAGAAGGAACUUGAGGAUCACCCAAGUUAAGAUAGGGU [JR_BMEx4_Sub066] (Eterna round: R97, puzzle: Brourd's mod of Exclusion 4)”, the “apparent KD of MS2 coat protein” value (input ligand: FMN 200 uM) amounted to 258 nM and the “apparent KD of MS2 coat protein” value (input ligand: none) amounted to 170 nM.

For “GCAGCAUAGAUAACAGUCUGAUACAUGAGGAUCACCCAUGUGCAGGAUAUGGUCUGGAUUACAGGCCAGAAGGGUACAAGCUGC [Eli exng3 - 015] (Eterna round: R96, puzzle: Exclusion NG 3)”, the “apparent KD of MS2 coat protein” value was found to be 10.4 nM (input ligand: FMN 200 uM), 7.84 nM under setting [4] and 13.4 nM (input ligand: none).

“GCAGCAUAGAUGAAAAUCUGAUACAUGAGGAUCACCCAUGUUCAGGAUAUGGUCUGGAUUACAGGCCAGAAGGGAACAAGCUGC [Eli exng3 - 011] (Eterna round: R96, puzzle: Exclusion NG 3)”: the “apparent KD of MS2 coat protein” value (input ligand: FMN 200 uM) came to 14 nM, the “apparent KD of MS2 coat protein” value under setting [4] came to 10.3 nM and the “apparent KD of MS2 coat protein” value (input ligand: none) was 12 nM.

Regarding “GCAGCAUAGUCCAAAUAGGACAUACAUGAGGAUCACCCAUGUCAGGAUAUGGUCUGGAUUACAGGCCAGAAGGGACGUAGCUGC [Eli exng3 - 004] (Eterna round: R96, puzzle: Exclusion NG 3)”, the “apparent KD of MS2 coat protein” value reads like this: (input ligand: FMN 200 uM) 25.9 nM; under setting [4], 20.9 nM; (input ligand: none) 23.6 nM.

For “GCAGCAUAGUUUACUAACUGUUACAUGAGGAUCACCCAUGUCUAGGAUAUGGUCUGGAUUACAGGCCAGAAGGAGGCAAGCUGC [Eli exng3 - 035] (Eterna round: R96, puzzle: Exclusion NG 3)”, the “apparent KD of MS2 coat protein” value runs as follows: (input ligand: FMN 200 uM) 11.8 nM; under setting [4], 16.8 nM; (input ligand: none) 19.8 nM.

Regarding “GCAGCAUAGUUUACUAACUGUUACAUGAGGAUCACCCAUGUUUAGGAUAUGGUCUGGAUUACAGGCCAGAAGGAAACAAGCUGC [Eli exng3 - 033] (Eterna round: R96, puzzle: Exclusion NG 3)”, the “apparent KD of MS2 coat protein” value came to 12.8 nM (input ligand: FMN 200 uM), 9.51 nM under setting [4] and 12.4 nM (input ligand: none).

On to “GCAGCUUAGUUAACAGACUGUUACAUGAGGAUCACCCAUGUACAGGAUAUGGUCUGGAUUACAGGCCAGAAGGGUACAAGCUGC [Eli exng3 - 018] (Eterna round: R96, puzzle: Exclusion NG 3)”, for which the “apparent KD of MS2 coat protein” value runs as follows: (input ligand: FMN 200 uM) 9.62 nM; under setting [4], 9.01 nM; (input ligand: none) 11.5 nM.
